Experimental data published in US20130095098A1 (UCB, published 2013).

B1: 948.g1 (948 humanised graft; gL1 light chain, g1 heavy chain, human gamma-4 S241P / human kappa) (antibody, human IgG4 S228P, kappa, V domains shown)
VH: EVQLQESGPGLVKPSQTLSLTCTVTGYSITSDYAWNWIRQPPGKKLEWMGYINYSGSTSYNPSLKSRVTISRDTSKNQFSLKLSSVTAADTAVYYCARWIGSSAWYFDVWGQGTLVTVSS
VL: DVLMTQTPLSLSVTPGQPASISCRSGQNIVHSNGNTYLEWYLQKPGQSPKLLIYKVSNRFFGVPDRISGSGSGTDFTLKISRVEAEDVGVYFCFQGSHVPFTFGQGTKLEIKR
B2: antibody CA051-00948 (948 murine parental; cloned recombinant antibody derived from hybridoma Clone 10) (antibody, IgG1, V domains shown)
VH: DVQLQESGPGLVKPSQSLSLTCTVTGYSITSDYAWNWIRQFPGNKLEWMGYINYSGSTSYNPSLKSRISITRDTSKNQFFLQLNSVTTEDTATYYCARWIGSSAWYFDVWGAGTTVTVS
VL: DVLMTQTPLSLPVSLGDQASISCRSGQNIVHSNGNTYLEWYLQKPGQSPKLLIYKVSNRFFGVPDRISGSGSGTDFTLKISRVEAEDLGVYFCFQGSHVPFTFGSGTKLEIK
notes: also called Ab948

How the values were obtained:
[1] = target: T1, human PD-1 (Programmed Death 1), full-length, expressed on transiently transfected HEK293 cells (human, UniProt Q15116 25-288); test: flow cytometry on HEK293 cells transiently transfected with human PD-1; FITC mouse anti-human IgG secondary
T1 construct: whole, on cells; also called CD279; PDCD1
T1 sequence (Q15116 25-288): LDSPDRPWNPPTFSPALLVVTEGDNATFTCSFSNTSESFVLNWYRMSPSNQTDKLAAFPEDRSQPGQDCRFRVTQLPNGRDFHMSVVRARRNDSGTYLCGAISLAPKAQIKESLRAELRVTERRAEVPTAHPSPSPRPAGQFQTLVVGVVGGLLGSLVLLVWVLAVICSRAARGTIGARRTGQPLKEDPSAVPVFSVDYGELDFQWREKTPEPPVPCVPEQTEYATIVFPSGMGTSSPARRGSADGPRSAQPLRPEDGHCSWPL
Protocol: (§1) HEK293 cells were transiently transfected by culturing at 5×10⁶/well with 5 μg human PD-1 DNA and 293 fectin (Invitrogen) overnight in 6 well plates. […] Cells were washed with PBS and incubated with an appropriate secondary antibody, either FITC Mouse anti Human IgG (05-4211 Zymed, 1:20 dilution) or rat anti Mouse IgG (04-6111 Zymed, 1:20 dilution) for 1 hr at 4° C. Flow cytometry analysis was performed on a FACSCalibur (Becton Dickinson).

[2] = target: T1, human PD-1 (Programmed Death 1), …; test: flow cytometry on HEK293 cells transiently transfected with human PD-1; rat anti-mouse IgG secondary
Protocol: as §1

Binder | binding result [1] | binding result [2]
B1 | binds | –
B2 | – | binds
